The values that follow come from patent publication US10098865B2, “Multi-arm polymeric prodrug conjugates of taxane-based compounds” (Nektar Therapeutics, priority 2010, dated 2018).

This series can be described thus: Maximum Tolerated Dose (MTD) study of d9-docetaxel conjugates in athymic mice. The note with it: for MTD (maximum tolerated dose), estimated: athymic nu/nu mice, qwk×3, iv, dose refers to d9-docetaxel content; for Body Weight Nadir / Body Weight Nadir (day): day of nadir / Treatment-Related Deaths: female athymic nu/nu mice, qwk x 3. In kind it is in vivo, female athymic nu/nu mice. The procedure:
MTD for 4-arm-PEG20K-CM-glycine-d9-docetaxel and 4-arm-PEG20K-BA-d9-docetaxel were determined in female athymic nu/nu mice using standard methods. For all test compounds, the dose refers to the d9-docetaxel content. d9-Docetaxel solutions were prepared in D5W containing 7.5% Tween 80:7.5% ethanol. PEG-d9-docetaxel conjugates were prepared in D5W. The administration volume for all test articles was 10 mL/kg. Mice were observed daily for clinical signs and body weights were recorded on days 1-5 and then biweekly until the end of study. Any individual animal with a single observation of greater than 30% body weight loss or three consecutive measurements of greater than 25% body weight loss was euthanized. For any group with two measurements of mean body weight loss of greater than 20%, dosing was stopped and recovery was allowed. Within a group with greater than 20% mean weight loss, individual animals greater than 30% body weight loss were euthanized. Compound dosing was terminated for any group in which mean weight loss exceeded 20% or >10% of animals died. Moribund animals were euthanized and all animals were euthanized at end of study.

Setting [1] is: 7.5 mg/kg (d9-docetaxel content) iv.
[2] abbreviates: 30 mg/kg (d9-docetaxel content) iv.
Where [3] appears, read: N=5, 7.5 mg/kg (d9-docetaxel content) iv.
Where [4] appears, read: N=5, 15 mg/kg (d9-docetaxel content) iv.
[5] abbreviates: N=5, 30 mg/kg (d9-docetaxel content) iv.
[6] abbreviates: 15 mg/kg (d9-docetaxel content) iv.

Turning to “4-ARM-PEG20K-Butanoate-Linked d9-Docetaxel Conjugate [4ARM-PEG20K-BA-d9-DOC]”, the “MTD (maximum tolerated dose), estimated” value was 20 mg/kg. Further, under setting [1], the “Body Weight Nadir” value was −0.6% and the “Body Weight Nadir (day): day of nadir” value was 2 days. For the same molecule, under setting [2], the “Body Weight Nadir” value is on record as −21.0% and the “Body Weight Nadir (day): day of nadir” value was determined as 21 days. Further, under setting [3], the “Treatment-Related Deaths” value came to 0. The “Treatment-Related Deaths” value under setting [4] is 0. Moreover, under setting [5], the “Treatment-Related Deaths” value worked out at 0.

“4-ARM-PEG20K-Glycinate-Linked d9-Docetaxel Conjugate [4ARM-PEG20K-CM-GLY-d9-DOC]”: the “MTD (maximum tolerated dose), estimated” value is given as 20 mg/kg. In addition, under setting [1], the “Body Weight Nadir” value is −1.6% and the “Body Weight Nadir (day): day of nadir” value worked out at 2 days. For the same molecule, under setting [6], the “Body Weight Nadir” value is listed as −4.2% and the “Body Weight Nadir (day): day of nadir” value came to 10 days. Also, under setting [2], the “Body Weight Nadir” value is given as −25.2% and the “Body Weight Nadir (day): day of nadir” value was determined as 21 days. The “Treatment-Related Deaths” value under setting [3] is on record as 0. Moreover, the “Treatment-Related Deaths” value under setting [4] stood at 0. Besides, under setting [5], the “Treatment-Related Deaths” value was determined as 0.

Turning to `[2H]C([2H])([2H])C(OC(=O)N[C@@H](c1ccccc1)[C@@H](O)C(=O)O[C@H]1C[C@@]2(O)[C@@H](OC(=O)c3ccccc3)C3C(C)(C(=O)[C@H](O)C(=C1C)C2(C)C)[C@@H](O)CC1OC[C@]13OC(C)=O)(C([2H])([2H])[2H])C([2H])([2H])[2H]` (stereo partly drawn) [Docetaxel-d9, d9-Docetaxel], where the note is “25 mg/kg iv”, the “Body Weight Nadir” value is reported as −17.7% and the “Body Weight Nadir (day): day of nadir” value came out at 21 days. For the same molecule, the “Treatment-Related Deaths” value (N=5, 25 mg/kg iv) amounted to 0.
